# Laboratory results from article PMC6473055, “ALCAM Mediates DC Migration Through Afferent Lymphatics and Promotes Allospecific Immune Reactions” (Frontiers in Immunology, 2019).
# T1: murine CD166(1-527)-His (mouse, UniProt Q61490 28-527)
# T1 construct: signal peptide in the construct; ALCAM (CD166), mouse, residues 1-527 as printed; also called murine ALCAM; source: bought: Sino Biological, purified
# T1 sequence (looked up): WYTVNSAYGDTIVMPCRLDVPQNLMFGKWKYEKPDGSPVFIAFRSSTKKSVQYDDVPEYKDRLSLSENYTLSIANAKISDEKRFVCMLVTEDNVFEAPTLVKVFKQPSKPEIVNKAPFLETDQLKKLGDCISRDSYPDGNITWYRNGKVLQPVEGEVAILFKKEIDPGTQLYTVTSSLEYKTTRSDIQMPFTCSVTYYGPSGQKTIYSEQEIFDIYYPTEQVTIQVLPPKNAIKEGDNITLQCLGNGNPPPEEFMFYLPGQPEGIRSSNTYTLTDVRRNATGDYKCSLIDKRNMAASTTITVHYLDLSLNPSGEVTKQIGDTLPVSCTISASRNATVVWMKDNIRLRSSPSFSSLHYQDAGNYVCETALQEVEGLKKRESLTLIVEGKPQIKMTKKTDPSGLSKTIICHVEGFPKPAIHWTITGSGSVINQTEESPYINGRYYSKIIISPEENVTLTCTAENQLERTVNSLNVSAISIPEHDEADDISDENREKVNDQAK
# B1: murine CD6-Fc (Fc fusion, mouse, UniProt Q61003 17-398, looked up)
# chain: GLPSPAPSGQHKNGTIPNMTLDLEERLGIRLVNGSSRCSGSVKVLLESWEPVCAAHWNRAATEAVCKALNCGDSGKVTYLMPPTSELPPGATSGNTSSAGNTTWARAPTERCRGANWQFCKVQDQECSSDRRLVWVTCAENQAVRLVDGSSRCAGRVEMLEHGEWGTVCDDTWDLQDAHVVCKQLKCGWAVKALAGLHFTPGQGPIHRDQVNCSGTEAYLWDCPGRPGDQYCGHKEDAGVVCSEHQSWRLTGGIDSCEGQVEVYFRGVWSTVCDSEWYPSEAKVLCRSLGCGSAVARPRGLPHSLDGRMYYSCKGQEPALSTCSWRFNNSNLCSQSRAARVVCSGSQRHLNLSTSEVPSRVPVTIESSVPVSVKDKDSQGLT
# notes: CD6, mouse; source: bought: R&D Systems
# Molecular target: T1, murine CD166(1-527)-His
# Assay: ELISA; competition ELISA: plates coated overnight at 4°C with murine CD166(1-527)-His (5 μg/ml), blocked with PBS with 2% milk powder; 2 h at RT with a fixed amount of murine CD6-Fc (1 μg/ml) and I/F8-Fc or KSF-Fc in PBS (4 to 0.25 μg/ml); bound CD6-Fc detected with HRP-coupled anti-human IgG
# Conditions: both partners purified
binder,measurement,value
B1,binding result,binds
